Experimental data reported in patent publication US20080220450A1, “Population Based Prediction Methods for Immune Response Determinations and Methods for Verifying Immunological Response Data” (Danisco US, Inc., Genencor Division, priority 2004, published 2008).

System: CD4+ T-cells and dendritic cells
Assay: I-MUNE assay: CD4+ T-cell proliferation to 15-mer peptide sets presented by dendritic cells
Type: cell-based, human
Set-up: Structure Value: scale not given here
Conditions: for Responses per peptide: positive response SI of 2.95 or greater, community donors; for Response/Peptide: SI>2.95; for background response: average percent responders per peptide, +/− sd where given; for Prominent responses noted at amino acids: peptide regions of the protein
Experimental: All peptides were obtained from a commercial source (Mimotopes, San Diego, C-A). For the I-MUNE® assay system described herein, 15-mer peptides offset by 3 amino acids that described the entire sequence of the proteins of interest were synthesized in a multipin format (See, Maeji et al., J. Immunol. Meth., 134:23-33 [1990]). Peptides were resuspended in DMSO at approximately 1 to 2 mg/ml, and stored at −70° C. prior to use. Each peptide was tested at least in duplicate, although for small peptide sets (e.g., Ber e 1), the peptides were routinely tested in triplicate.
Volunteer donor human blood buffy coat samples were obtained from two commercial sources (Stanford Blood Center, Palo Alto, Calif., and the Sacramento Medical Foundation, Sacramento, Calif.). Buffy coat samples were further purified by density separation. Each sample was HLA typed for HLA-DR and HLA-DQ using a commercial PCR-based kit (Bio-Synthesis).
Monocytes were purified by adherence to plastic in AIM V medium (Gibco/Life Technologies). Adherent cells were cultured in AIM V media containing 500 units/ml of recombinant human IL-4 (Endogen) and 800 units/ml recombinant human GM-CSF (Endogen) for 5 days. On day 5, recombinant human IL-1α (Endogen) and recombinant human TNF-α (Endogen) were added to 50 units/ml and 0.2 units/ml, respectively. On day 7, the fully matured dendritic cells were treated with 50 μg/ml mitomycin C (Sigma) for 1 hour at 37° C. Treated dendritic cells were dislodged with 50 mM EDTA in PBS, washed in AIM V medium, counted, and resuspended in AIM V media at 2×10^5 cells/ml.
CD4^+ T-cells were purified by negative selection from frozen aliquots of human peripheral blood mononuclear cells (PBMC) using Cellect CD4 columns (Cedarlane). […] CD4^+ T-cells were resuspended in AIM V media at 2×10^6 cells per ml.
CD4^+ T-cells and dendritic cells were plated in round-bottomed 96 well format plates at 100 μl of each cell mix per well. Peptide was added to a final concentration of approximately 5 ug/ml in 0.25-0.5% DMSO. Control wells contained 0.5% DMSO without added peptide. Each peptide was tested in duplicate. Cultures were incubated at 37° C., in 5% CO2 for 5 days. On day 5, 0.5 uCi of tritiated thymidine (NEN DuPont) was added to each well. On day 6, the cultures were harvested onto glass fiber mats using a TomTec manual harvester (TomTec), then processed for scintillation counting. Proliferation was assessed by determining the average counts per minute (CPM) value for each set of duplicate wells (TriLux Beta). This method is also described in U.S. Pat. No. 6,218,165 and Stickler et al., J. Immunother. 23: 654-660 (2000), both of which are herein incorporated by reference.
For each individual buffy coat sample, the average CPM values obtained in the I-MUNE® assay for all of the peptides were analyzed. The average CPM values for each peptide were divided by the average CPM value for the control (DMSO only) wells to determine the “stimulation index” (SI). Donors were tested with each peptide set until an average of at least two responses per peptide were compiled. The data for each protein was graphed showing the percent responders to each peptide within the set. A positive response was collated if the SI value was equal to or greater than 2.95. This value was chosen as it approximates a difference of three standard deviations in a normal population distribution. For each protein assessed, positive responses to individual peptides by individual donors were compiled. To determine the background response for a given protein, the percent responders for each peptide in the set were averaged and a standard deviation was calculated. SI values for each donor were compiled for each peptide set, and the percent of responders reported.

[1] = Table 1, from compiled responses
[2] = Table 3, Stanford and Sacramento donors

B1: Amylase: Bacillus licheniformis alpha amylase, industrial enzyme, Swissprot accession number P06278 (protein, UniProt P06278 30-512, looked up)
Alpha-amylase: ANLNGTLMQYFEWYMPNDGQHWKRLQNDSAYLAEHGITAVWIPPAYKGTSQADVGYGAYDLYDLGEFHQKGTVRTKYGTKGELQSAIKSLHSRDINVYGDVVINHKGGADATEDVTAVEVDPADRNRVISGEHRIKAWTHFHFPGRGSTYSDFKWHWYHFDGTDWDESRKLNRIYKFQGKAWDWEVSNENGNYDYLMYADIDYDHPDVAAEIKRWGTWYANELQLDGFRLDAVKHIKFSFLRDWVNHVREKTGKEMFTVAEYWQNDLGALENYLNKTNFNHSVFDVPLHYQFHAASTQGGGYDMRKLLNSTVVSKHPLKAVTFVDNHDTQPGQSLESTVQTWFKPLAYAFILTRESGYPQVFYGDMYGTKGDSQREIPALKHKIEPILKARKQYAYGAQHDYFDHHDIVGWTREGDSSVANSGLAALITDGPGGAKRMYVGRQNAGETWHDITGNRSEPVVINSEGWGEFHVNGGSVSIYVQR
Table 1
  Number of epitope regions: 3
  Responses per peptide: 2.29
[1]
  Structure Value: 0.81
Table 3
  Background %: 2.79%
  Response/Peptide: 2.29
[2]
  Structure Value: 0.81
  background response: 2.80+/−3.69%
Compiled responses
  Structure Value: 0.81

B2: ALCALASE ®: ALCALASE® enzyme, commercially available from Novo, Swissprot accession number P00780 (protein, UniProt P00780 106-379, looked up)
Subtilisin Carlsberg: AQTVPYGIPLIKADKVQAQGFKGANVKVAVLDTGIQASHPDLNVVGGASFVAGEAYNTDGNGHGTHVAGTVAALDNTTGVLGVAPSVSLYAVKVLNSSGSGSYSGIVSGIEWATTNGMDVINMSLGGASGSTAMKQAVDNAYAKGVVVVAAAGNSGSSGNTNTIGYPAKYDSVIAVGAVDSNSNRASFSSVGAELEVMAPGAGVYSTYPTNTYATLNGTSMASPHVAGAAALILSKHPNLSASQVRNRLSSTATYLGSSFYYGKGLINVEAAAQ
Table 1
  Number of epitope regions: 1
  Responses per peptide: 2.16
[1]
  Structure Value: 0.72
Table 3
  Background %: 2.35%
  Response/Peptide: 2.16
[2]
  Structure Value: 0.72
  background response: 2.35%
  Prominent responses noted at amino acids: 19-33
Compiled responses
  Structure Value: 0.72

B3: BPN′ Y217L: B. amyloliquifaciens subtilisin BPN′ Y217L, Swissprot accession number P00782 (protein, UniProt P00782 108-382, looked up, variant Y217L)
Subtilisin BPN': AQSVPYGVSQIKAPALHSQGYTGSNVKVAVIDSGIDSSHPDLKVAGGASMVPSETNPFQDNNSHGTHVAGTVAALNNSIGVLGVAPSASLYAVKVLGADGSGQYSWIINGIEWAIANNMDVINMSLGGPSGSAALKAAVDKAVASGVVVVAAAGNEGTSGSSSTVGYPGKYPSVIAVGAVDSSNQRASFSSVGPELDVMAPGVSIQSTLPGNKYGALNGTSMASPHVAGAAALILSKHPNWTNTQVRSSLENTTTKLGDSFYYGKGLINVQAAAQ
Table 1
  Number of epitope regions: 2
  Responses per peptide: 3.65
[1]
  Structure Value: 0.53
Table 3
  Background %: 3.65%
  Response/Peptide: 3.61
[2]
  Structure Value: 0.65
Table 4, number of prominent epitopes
  Prominent Epitope: 2
Table 4, parent, dataset of 113 individuals
  Structure Value: 0.53
Table 21, parent, I-MUNE assay data
  SIV (structure index value): 0.53
  background response: 3.62%
Compiled responses
  Structure Value: 0.53

B4: sTNFR1: soluble tumor necrosis factor receptor 1 (protein, UniProt P19438 30-211, looked up)
extracellular domain: LVPHLGDREKRDSVCPQGKYIHPQNNSICCTKCHKGTYLYNDCPGPGQDTDCRECESGSFTASENHLRHCLSCSKCRKEMGQVEISSCTVDRDTVCGCRKNQYRHYWSENLFQCFNCSLCLNGTVHLSCQEKQNTVCTCHAGFFLRENECVSCSNCKKSLECTKLCLPQIENVKGTEDSGTT
modifications: extracellular domain
Table 3
  Background %: 4.2%
  Response/Peptide: 2.9
[2]
  Structure Value: 0.47
Table 5, background response value
  Background +/− sd: 2.23 +/− 1.95
Table 5, determined experimentally
  Responses/peptide found: 1.54

B5: B. lentus subtilisin: Bacillus lentus subtilisin, industrial protease, Swissprot accession number P29600 (protein, UniProt P29600 1-269, looked up)
Subtilisin Savinase: AQSVPWGISRVQAPAAHNRGLTGSGVKVAVLDTGISTHPDLNIRGGASFVPGEPSTQDGNGHGTHVAGTIAALNNSIGVLGVAPSAELYAVKVLGASGSGSVSSIAQGLEWAGNNGMHVANLSLGSPSPSATLEQAVNSATSRGVLVVAASGNSGAGSISYPARYANAMAVGATDQNNNRASFSQYGAGLDIVAPGVNVQSTYPGSTYASLNGTSMATPHVAGAAALVKQKNPSWSNVQIRNHLKNTATSLGSTNLYGSGLVNAEAATR
Table 1
  Number of epitope regions: 1
  Responses per peptide: 2.24
[1]
  Structure Value: 0.64
Table 3
  Background %: 3.45%
  Response/Peptide: 2.24
[2]
  Structure Value: 0.65
  background response: 3.45+/−2.90%
  Prominent responses noted at amino acids: 160-174
Compiled responses
  Structure Value: 0.64
